This test has as its target minimal functional rat TRPV1 construct, tetramer reconstituted in lipid nanodisc (rat) (UniProt O35433). Put plainly: cryo-EM structure.
Chain of UniProt O35433 (O35433 whole entry): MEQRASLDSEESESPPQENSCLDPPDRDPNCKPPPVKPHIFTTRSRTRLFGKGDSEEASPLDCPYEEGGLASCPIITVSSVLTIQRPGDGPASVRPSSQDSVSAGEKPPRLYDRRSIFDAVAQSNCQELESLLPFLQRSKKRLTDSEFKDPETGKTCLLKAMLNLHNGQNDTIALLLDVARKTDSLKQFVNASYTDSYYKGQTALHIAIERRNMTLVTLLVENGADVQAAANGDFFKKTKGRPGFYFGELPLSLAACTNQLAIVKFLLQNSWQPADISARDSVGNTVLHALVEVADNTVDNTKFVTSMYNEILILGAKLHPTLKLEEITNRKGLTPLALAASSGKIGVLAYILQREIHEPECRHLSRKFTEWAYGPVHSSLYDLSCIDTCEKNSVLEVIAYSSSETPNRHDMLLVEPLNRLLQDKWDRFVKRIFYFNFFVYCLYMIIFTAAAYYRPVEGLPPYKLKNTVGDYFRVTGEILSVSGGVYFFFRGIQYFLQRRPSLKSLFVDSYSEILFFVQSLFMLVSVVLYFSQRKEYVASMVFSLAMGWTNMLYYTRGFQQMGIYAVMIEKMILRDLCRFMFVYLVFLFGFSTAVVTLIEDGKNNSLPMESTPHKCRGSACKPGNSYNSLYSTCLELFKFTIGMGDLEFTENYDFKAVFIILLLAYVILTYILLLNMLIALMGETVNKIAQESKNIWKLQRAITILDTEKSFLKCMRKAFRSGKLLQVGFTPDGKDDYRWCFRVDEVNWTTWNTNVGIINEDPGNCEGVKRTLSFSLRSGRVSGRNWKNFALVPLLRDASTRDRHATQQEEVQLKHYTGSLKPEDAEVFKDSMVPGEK

B1: double-knot toxin (DkTx) (peptide)
chain: DCAKEGEVCSWGKKCCDLDNFYCPMEFIPHCKKYKPYVPVTTNCAKEGEVCGWGSKCCHGLDCPLAFIPYCEKYRGRND
Take B1: the stoichiometry N (DkTx per TRPV1 tetramer) is 2.

For the origin of these results see article PMC4911334.
